# T1: His6-CaCrz1 (Candida albicans, UniProt Q5A4H5 1-731)
# T1 sequence: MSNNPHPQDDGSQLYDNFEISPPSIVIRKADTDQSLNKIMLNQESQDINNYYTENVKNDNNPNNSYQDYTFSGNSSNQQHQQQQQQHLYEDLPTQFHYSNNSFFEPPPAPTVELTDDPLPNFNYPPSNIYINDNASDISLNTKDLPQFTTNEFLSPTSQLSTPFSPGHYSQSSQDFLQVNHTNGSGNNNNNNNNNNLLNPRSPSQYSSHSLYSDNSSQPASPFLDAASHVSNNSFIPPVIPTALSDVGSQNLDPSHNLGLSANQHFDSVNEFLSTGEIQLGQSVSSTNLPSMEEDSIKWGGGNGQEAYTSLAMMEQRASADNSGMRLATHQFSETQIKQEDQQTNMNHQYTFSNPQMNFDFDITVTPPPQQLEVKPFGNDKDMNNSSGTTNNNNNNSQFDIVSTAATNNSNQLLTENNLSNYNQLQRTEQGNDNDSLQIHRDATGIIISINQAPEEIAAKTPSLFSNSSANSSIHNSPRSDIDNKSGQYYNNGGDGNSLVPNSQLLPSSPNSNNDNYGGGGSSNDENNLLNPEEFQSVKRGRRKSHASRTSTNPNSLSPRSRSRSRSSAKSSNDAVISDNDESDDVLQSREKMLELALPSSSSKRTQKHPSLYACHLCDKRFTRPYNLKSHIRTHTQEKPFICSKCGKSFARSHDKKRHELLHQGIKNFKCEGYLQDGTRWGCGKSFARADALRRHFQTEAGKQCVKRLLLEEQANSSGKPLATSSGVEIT
# Key:
# His6-CaCrz1 [1] = biological target: T1, His6-CaCrz1; experiment: EMSA; 1 ug protein; EMSA with DIG-labelled probes and 1 ug His6-Crz1; buffer, salt, pH and temperature not given in the material; details: protein: recombinant; tags: N-terminal His6 (pET28a(+)); label: DIG; blunt
# His6-CaCrz1 [2] = biological target: T1, His6-CaCrz1; experiment: EMSA; 1 ug protein; abolished by unlabelled Probe 1; EMSA with DIG-labelled probes and 1 ug His6-Crz1; buffer, salt, pH and temperature not given in the material; details: protein: recombinant, tags: N-terminal His6 (pET28a(+)), label: DIG
# His6-CaCrz1 [3] = biological target: T1, His6-CaCrz1; experiment: EMSA; 1 ug protein; abolished by unlabelled Probe 2; EMSA with DIG-labelled probes and 1 ug His6-Crz1; buffer, salt, pH and temperature not given in the material; details: protein: recombinant; tags: N-terminal His6 (pET28a(+)); label: DIG
Binder,binding result (His6-CaCrz1 [1]),other results
CRZ1 Probe 2 (dsDNA) DNA 1: ATTAGAATAGAATATTATCACAGACCCCCCCAATATCTATTTATCAACCT DNA 2: AGGTTGATAAATAGATATTGGGGGGGTCTGTGATAATATTCTATTCTAAT,no binding,–
CRZ1 Probe 4 (dsDNA) DNA 1: AACAATTTAATCTGGTCATTTCATTTCCCCTAACAGCATCTTTCCAAGTT DNA 2: AACTTGGAAAGATGCTGTTAGGGGAAATGAAATGACCAGATTAAATTGTT,no binding,–
CRZ1 Probe 1 (dsDNA) DNA 1: TGTGTGTGTGTGTGACAGTCCAGTCCCTCAACTAATTTAAAACAGTTTTT DNA 2: AAAAACTGTTTTAAATTAGTTGAGGGACTGGACTGTCACACACACACACA,–,binding result (His6-CaCrz1 [2]; blunt): binds
UTR2 Probe 1 EMSA_UTR2_F/R(H) (dsDNA) DNA 1: CTTTCATTTCATTTCTTTTCTCAACGCCTCAAAATTTGATTCTTAAAATT DNA 2: AATTTTAAGAATCAAATTTTGAGGCGTTGAGAAAAGAAATGAAATGAAAG,–,binding result (His6-CaCrz1 [2]): binds
CRZ1 Probe 3 (dsDNA) DNA 1: TTTCAACTTCCATCATATTTACCACAATTGGATTAACTTGGTTAT DNA 2: ATAACCAAGTTAATCCAATTGTGGTAAATATGATGGAAGTTGAAA,no binding,–
UTR2 Probe 2 EMSA_UTR2_F/R(M) (dsDNA) DNA 1: GGCTTAAATTCTTGAGTTGTGGGCTTTGAATTTCTTTCATTTCAT DNA 2: ATGAAATGAAAGAAATTCAAAGCCCACAACTCAAGAATTTAAGCC,–,binding result (His6-CaCrz1 [3]): binds

# — paper PMC6942403, “RNA sequencing reveals an additional Crz1-binding motif in promoters of its target genes in the human fungal pathogen Candida albicans”
